From CN1649900A (dated 2005)
Where a chain is given by its changes, count along the chain named. Where no end group is shown, it is not given here. [ ]: non-standard residue; d: D form. sY = N[C@@H](Cc1ccc(OS(=O)(=O)O)cc1)C(=O)O

T1: human lumican from plasma (human, UniProt P51884 19-338)
T1 construct: also called H P-配体2
T1 sequence (looked up): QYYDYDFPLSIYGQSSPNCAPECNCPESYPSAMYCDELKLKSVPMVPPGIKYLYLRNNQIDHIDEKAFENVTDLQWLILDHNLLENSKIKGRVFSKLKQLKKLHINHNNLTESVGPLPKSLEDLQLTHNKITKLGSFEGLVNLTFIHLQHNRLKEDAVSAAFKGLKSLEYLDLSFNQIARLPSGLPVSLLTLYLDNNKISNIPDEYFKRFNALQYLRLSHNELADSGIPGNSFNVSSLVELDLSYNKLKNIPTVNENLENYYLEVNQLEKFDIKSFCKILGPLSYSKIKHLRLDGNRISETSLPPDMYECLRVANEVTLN

T2: PSGL-1 (P-selectin glycoprotein ligand-1, CD162) on KG-1 cells or in KG-1 membrane preparations (human, UniProt Q14242 42-412, sulfated tyrosines in the N-terminal region)
T2 construct: whole, on cells; entries on KG-1 cells, lysates and membrane fractions are written against this molecule; also called KG-1细胞上Y1配体
T2 sequence (looked up): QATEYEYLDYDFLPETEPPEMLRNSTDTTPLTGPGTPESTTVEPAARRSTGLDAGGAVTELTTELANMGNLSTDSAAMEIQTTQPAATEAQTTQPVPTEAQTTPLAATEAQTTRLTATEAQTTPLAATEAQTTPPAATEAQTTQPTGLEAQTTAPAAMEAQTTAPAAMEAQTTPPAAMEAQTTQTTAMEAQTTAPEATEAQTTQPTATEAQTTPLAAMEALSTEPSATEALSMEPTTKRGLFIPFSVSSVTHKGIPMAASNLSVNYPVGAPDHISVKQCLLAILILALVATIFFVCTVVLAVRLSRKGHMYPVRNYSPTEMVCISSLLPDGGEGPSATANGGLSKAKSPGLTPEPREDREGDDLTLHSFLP

B1: Y1 scFv (human single-chain Fv antibody fragment Y1) (scFv)
scFv: EVQLVESGGGVVRPGGSLRLSCAASGFTFDDYGMSWVRQAPGKGLEWVSGINWNGGSTGYADSVKGRFTISRDNAKNSLYLQMNSLRAEDTAVYYCARMRAPVIWGQGTLVTVSRGGGGSGGGGSGGGGSSELTQDPAVSVALGQTVRITCQGDSLRSYYASWYQQKPGQAPVLVIYGKNNRPSGIPDRFSGSSSGNTASLTITGAQAEDEADYYCNSRDSSGNHVVFGGGTKLTVLGAAAEQKLISEEDLNGAA
notes: Clone from the Nissim I phage display library; Used biotinylated in Western blots; detected with rabbit anti-scFv or anti-VL in FACS and ELISA; also called scFv Y1; scFv-Y1
B2: Y17 scFv (scFv)
scFv: B1 scFv with M99L, R100T, A101H, V103Y, I104F
notes: Second scFv clone selected on platelets
B3: S-S Y1 dimer (disulfide-bridged dimer of Y1 scFv with a cysteine added at the carboxy terminus) (other)
chain: EVQLVESGGGVVRPGGSLRLSCAASGFTFDDYGMSWVRQAPGKGLEWVSGINWNGGSTGYADSVKGRFTISRDNAKNSLYLQMNSLRAEDTAVYYCARMRAPVIWGQGTLVTVSRGGGGSGGGGSGGGGSSELTQDPAVSVALGQTVRITCQGDSLRSYYASWYQQKPGQAPVLVIYGKNNRPSGIPDRFSGSSSGNTASLTITGAQAEDEADYYCNSRDSSGNHVVFGGGTKLTVLGAAAEQKLISEEDLNGAAC
B4: Y1-IgG (full-size IgG1 lambda antibody built from the Y1 Fv) (antibody)
chain 1: EVQLVESGGGVVRPGGSLRLSCAASGFTFDDYGMSWVRQAPGKGLEWVSGINWNGGSTGYADSVKGRFTISRDNAKNSLYLQMNSLRAEDTAVYYCARMRAPVIWGQGTLVTVSR
chain 2: SELTQDPAVSVALGQTVRITCQGDSLRSYYASWYQQKPGQAPVLVIYGKNNRPSGIPDRFSGSSSGNTASLTITGAQAEDEADYYCNSRDSSGNHVVFGGGTKLTVLG
B5: CONY1, Y1 scFv monomer in which the myc tag is deleted or replaced by Lys-Ala-Lys (KAK) (scFv)
scFv: EVQLVESGGGVVRPGGSLRLSCAASGFTFDDYGMSWVRQAPGKGLEWVSGINWNGGSTGYADSVKGRFTISRDNAKNSLYLQMNSLRAEDTAVYYCARMRAPVIWGQGTLVTVSRGGGGSGGGGSGGGGSSELTQDPAVSVALGQTVRITCQGDSLRSYYASWYQQKPGQAPVLVIYGKNNRPSGIPDRFSGSSSGNTASLTITGAQAEDEADYYCNSRDSSGNHVVFGGGTKLTVLG
notes: also called CONY1 scFv; Y1-kak

Assays:
[1] = biological target: T1, human lumican from plasma; assay: binding to human plasma proteins
[2] = biological target: T2, PSGL-1 (P-selectin glycoprotein …); assay: Western blot
[3] = biological target: T2, PSGL-1 (P-selectin glycoprotein …); assay: FACS on KG-1 cells
[4] = biological target: T2, PSGL-1 (P-selectin glycoprotein …); assay: radioreceptor competition on KG-1 cells, tracer 125I-Y1-IgG 2 ng/tube
[5] = biological target: T2, PSGL-1 (P-selectin glycoprotein …); assay: radioreceptor assay, ELISA and FACS
[6] = biological target: T2, PSGL-1 (P-selectin glycoprotein …); assay: second radioreceptor competition on KG-1 cells, labelled CONY1
[7] = biological target: B1; assay: competition ELISA, Y1 scFv on glycocalicin, peptide 1, 10, 100 μM

Binder: B1
- binding result [1]: binds
- binding result [2]: binds

Binder: B2
- binding result [3]: binds

Binder: B3
- Kd [4]: 40 nM
- fold higher avidity than CONY1 [4]: 30 fold
- fold lower avidity than the whole Y1 antibody [4]: 2 fold
- fold binding over Y1 scFv monomer [5]: ≥ 20 fold
- Kd [6]: 50 nM
- fold higher affinity than CONY1 [6]: 20 fold

Binder: B4
- Kd [4]: ~20 nM

Binder: B5
- Kd [6]: ~1000 nM

Binder: VRPEHPAETE[sY]ESL[sY]PEDDL [F-Y*Y*, sulfated peptide from the fibrinogen γ prime chain]
- binding result [7]: no binding (tested: 100μM)

Binder: VRPEHPAETEYESLYPEDDL [F-YY, non-sulfated peptide from the fibrinogen γ prime chain]
- binding result [7]: no binding (tested: 100μM)
